Laboratory results taken from patent publication US20220175781A1, “CD40L COMPOSITIONS AND METHODS FOR TUNABLE REGULATION” (Obsidian Therapeutics, Inc., priority 2019, published 2022).
Where a chain is given by its changes, count along the chain named. Values joined by “and” are separate entries in the source; they are usually repeats but may differ in a detail not shown here. Identical values can stand only once.

Tests used:
[1] = tested on: T cells (CD4 and CD8 positive); experiment: Bazedoxifene dose response, CD40L MFI in CD4 and CD8 positive T cells (day 4, freeze/thaw, restimulation); format: cell-based
Procedure: Dose response with Bazedoxifene in T cells were conducted for OT-001966, OT-001967, OT-001666. Expression of CD40L was measured at (a) day 4 after transduction, (b) after freezing and thawing the cells or (c) after freezing and thawing the cells followed by restimulation with CD3/CD28 beads. The CD40L MFI (median fluorescence intensity) within CD4 and CD8 positive subpopulations is shown in Table 34 and Table 35 respectively.

[2] = tested on: Jurkat cells; experiment: Linker length, ER regulated CD40L, % CD40L positive Jurkat cells; format: cell-based
Procedure: Jurkat cells were lentivirally transduced and 24 hours after transduction were treated with DMSO or 1 μM Bazedoxifene for another 24 hours and analyzed by flow cytometry for surface expression of CD40L. […] In Table 33, SR indicates stabilization ratio.

[3] = tested on: Jurkat cells; experiment: CD40L shedding ELISA of supernatant, Jurkat cells with or without CD40-Fc receptor; format: cell-based; design: CD40L levels in supernatant: unit not given here; conditions: 6 hours
Procedure: Sheddases e.g. ADAM10/17 present in the tumor microenvironment can cleave CD40L thereby preventing the successful activation of CD40 by CD40L. […] OT-001669 which has a deletion of amino acids 1-13 of CD40L was designed to reduce internalization and OT-001668 which has a deletion of amino acids 110-116 of CD40L was designed to remove the ADAM10/17 sites. Jurkat cells stably expressing the full length construct OT-001661, OT-001669, or OT-001668 were cultured for 6 hours with 1.25 μg/ml recombinant human (h) or mouse (m) CD40-Fc receptor or left untreated and tested using an ELISA assay (Table 15).

[4] = tested on: HEK293T cells; experiment: CD40L-ecDHFR constructs, CD40L surface expression in transfected HEK293T cells; format: cell-based, human; conditions: for SR (for % CD40L) / TMP/vehicle ratio of CD40L median fluorescence intensity: TMP (50 μM) versus Vehicle
Procedure: HEK293T cells were transiently transfected with the constructs in Table 39 (1 μg of DNA). 24 hours after transfection, the media was removed and replaced with fresh medium containing 50 μM TMP or DMSO. Another 24 hours later cells were analyzed by flow cytometry for CD40L surface expression. Table 39 provides CD40L expression as both % CD40L positive cells and the Median fluorescence intensity (MFI) values.

[5] = tested on: Jurkat cells; experiment: In vivo CD40L regulation in Jurkat cells harvested from bone marrow of NSG mice; conditions: for CD40L MFI values / Percent CD40L positive cells: Jurkat cells from bone marrow, day 16
Source text: Jurkat cells stably expressing OT-001661, OT-002034 were intravenously infused into 8-week old NSG mice (20 million cells per mouse). Starting by day 15, mice were orally dosed according to the study design shown in Table 42 and Jurkat cells were harvested on day 16 from the bone marrow and analyzed by FACS. In Tables 41 and 42, TMP refers to Trimethoprim and all dosing is relative to “0 hr” time point on day 16. The results are shown in Table 43 and Table 44 where “EV” refers to empty vector control.

[6] = Jurkat cells from bone marrow of mice treated with TMP versus vehicle control or empty vector
[7] = individual mice, TMP 500 mg/kg 3x oral

B1: OT-001967: ER regulated CD40L construct with varied linker length (protein)
chain: MSLALSLTADQMVSALLDAEPPILYSEYDPTRPFSEASMMGLLTNLADRELVHMINWAKRVPGFVDLTLHDQVHLLECAWMEILMIGLVWRSMEHPGKLLFAPNLLLDRDQGKCVEGGVEIFDMLLATSSRFRMMNLQGEEFVCLKSIILLNSGVYTFLSSTLKSLEEKDHIHRVLDKITDTLIHLMAKAGLTLQQQHQRLAQLLLILSHIRHMSNKRMEHLYSMKCKNVVPLSDLLLEMLDAHRLGSMIETYNQTSPRSAATGLPISMKIFMYLLTVFLITQMIGSALFAVYLHRRLDKIEDERNLHEDFVFMKTIQRCNTGERSLSLLNCEEIKSQFEGFVKDIMLNKEETKKENSFEMQKGDQNPQIAAHVISEASSKTTSVLQWAEKGYYTMSNNLVTLENGKQLTVKRQGLYYIYAQVTFCSNREASSQAPFIASLCLKSPGRFERILLRAANTHSSAKPCGQQSIHLGGVFELQPGASVFVNVTDPSQVSHGTGFTSFGLLKL
CD40L expression (MFI) ([1]; CD4+ cells, Day 5, Bazedoxifene 0.01 nM): 473 | CD40L expression (MFI) ([1]; CD4+ cells, Day 5, Bazedoxifene 0.1 nM): 474 | CD40L expression (MFI) ([1]; CD4+ cells, Day 5, Bazedoxifene 1 nM): 483 | CD40L expression (MFI) ([1]; CD4+ cells, Day 5, Bazedoxifene 10 nM): 497 | CD40L expression (MFI) ([1]; CD4+ cells, Day 5, Bazedoxifene 100 nM): 630 | CD40L expression (MFI) ([1]; CD4+ cells, Day 5, Bazedoxifene 1000 nM): 998 | CD40L expression (MFI) ([1]; CD4+ cells, Day 5, Bazedoxifene 10000 nM): 1000 | CD40L expression (MFI) ([1]; CD4+ cells, Post Thaw, Bazedoxifene 0.01 nM): 156 | CD40L expression (MFI) ([1]; CD4+ cells, Post Thaw, Bazedoxifene 0.1 nM): 160 | CD40L expression (MFI) ([1]; CD4+ cells, Post Thaw, Bazedoxifene 1 nM): 161 | CD40L expression (MFI) ([1]; CD4+ cells, Post Thaw, Bazedoxifene 10 nM): 172 | CD40L expression (MFI) ([1]; CD4+ cells, Post Thaw, Bazedoxifene 100 nM): 200 | CD40L expression (MFI) ([1]; CD4+ cells, Post Thaw, Bazedoxifene 1000 nM): 223 | CD40L expression (MFI) ([1]; CD4+ cells, Post Thaw, Bazedoxifene 10000 nM): 457 | CD40L expression (MFI) ([1]; CD4+ cells, Restim, Bazedoxifene 0.01 nM): 913 | CD40L expression (MFI) ([1]; CD4+ cells, Restim, Bazedoxifene 0.1 nM): 922 | CD40L expression (MFI) ([1]; CD4+ cells, Restim, Bazedoxifene 1 nM): 913 | CD40L expression (MFI) ([1]; CD4+ cells, Restim, Bazedoxifene 10 nM): 1131 | CD40L expression (MFI) ([1]; CD4+ cells, Restim, Bazedoxifene 100 nM): 1549 | CD40L expression (MFI) ([1]; CD4+ cells, Restim, Bazedoxifene 1000 nM): 1232 | CD40L expression (MFI) ([1]; CD4+ cells, Restim, Bazedoxifene 10000 nM): 291 | CD40L expression (MFI) ([1]; CD8+ cells, Day 5, Bazedoxifene 0.01 nM): 153 | CD40L expression (MFI) ([1]; CD8+ cells, Day 5, Bazedoxifene 0.1 nM): 153 | CD40L expression (MFI) ([1]; CD8+ cells, Day 5, Bazedoxifene 1 nM): 157 | CD40L expression (MFI) ([1]; CD8+ cells, Day 5, Bazedoxifene 10 nM): 158 | CD40L expression (MFI) ([1]; CD8+ cells, Day 5, Bazedoxifene 100 nM): 226 | CD40L expression (MFI) ([1]; CD8+ cells, Day 5, Bazedoxifene 1000 nM): 424 | CD40L expression (MFI) ([1]; CD8+ cells, Day 5, Bazedoxifene 10000 nM): 392 | CD40L expression (MFI) ([1]; CD8+ cells, Post Thaw, Bazedoxifene 0.01 nM): 108 | CD40L expression (MFI) ([1]; CD8+ cells, Post Thaw, Bazedoxifene 0.1 nM): 105 | CD40L expression (MFI) ([1]; CD8+ cells, Post Thaw, Bazedoxifene 1 nM): 108 | CD40L expression (MFI) ([1]; CD8+ cells, Post Thaw, Bazedoxifene 10 nM): 114 | CD40L expression (MFI) ([1]; CD8+ cells, Post Thaw, Bazedoxifene 100 nM): 149 | CD40L expression (MFI) ([1]; CD8+ cells, Post Thaw, Bazedoxifene 1000 nM): 178 | CD40L expression (MFI) ([1]; CD8+ cells, Post Thaw, Bazedoxifene 10000 nM): 263 | CD40L expression (MFI) ([1]; CD8+ cells, Restim, Bazedoxifene 0.1 nM): 269 | CD40L expression (MFI) ([1]; CD8+ cells, Restim, Bazedoxifene 1 nM): 274 | CD40L expression (MFI) ([1]; CD8+ cells, Restim, Bazedoxifene 10 nM): 265 | CD40L expression (MFI) ([1]; CD8+ cells, Restim, Bazedoxifene 100 nM): 326 | CD40L expression (MFI) ([1]; CD8+ cells, Restim, Bazedoxifene 1000 nM): 445 | CD40L expression (MFI) ([1]; CD8+ cells, Restim, Bazedoxifene 10000 nM): 372 | Percent of Jurkat cells expressing CD40L ([2]; 1 μM Bazedoxifene): 30% | SR ([2]; 1 μM Bazedoxifene versus DMSO, % CD40L positive Jurkat cells): 15 | Percent of Jurkat cells expressing CD40L ([2]; DMSO): 2%

B2: OT-001669: CD40L construct with deletion of amino acids 1-13 of CD40L, designed to reduce internalization (protein)
chain: MHATGLPISMKIFMYLLTVFLITQMIGSALFAVYLHRRLDKIEDERNLHEDFVFMKTIQRCNTGERSLSLLNCEEIKSQFEGFVKDIMLNKEETKKENSFEMQKGDQNPQIAAHVISEASSKTTSVLQWAEKGYYTMSNNLVTLENGKQLTVKRQGLYYIYAQVTFCSNREASSQAPFIASLCLKSPGRFERILLRAANTHSSAKPCGQQSIHLGGVFELQPGASVFVNVTDPSQVSHGTGFTSFGLLKL
CD40L levels in supernatant ([3]; 1.25 μg/ml hCD40-Fc): 8444.30 | CD40L levels in supernatant ([3]; 1.25 μg/ml mCD40-Fc): 4335.76 | shedding of CD40L ([3]; 1.25 μg/ml recombinant human CD40-Fc): enhance the shedding | CD40L levels in supernatant ([3]; Untreated): 2137.69

B3: OT-002035: CD40L-ecDHFR construct of Table 39 (protein)
chain: MSGISLIAALAVDRVIGMENAMPWNLPADLAWFKRNTLNKPVIMGRHTWESIGRPLPGRKNIILSSQPGTDDRVTWVKSVDEAIAACGDVPEIMVIGGGRVREQFLPKAQKLYLTHIDAEVEGDTHFPDYEPDDWESVFSEFHDADAQNSHSYCFEILERRHMIETYNQTSPRSAATGLPISMKIFMYLLTVFLITQMIGSALFAVYLHRRLDKIEDERNLHEDFVFMKTIQRCNTGERSLSLLNCEEIKSQFEGFVKDIMLNKEETKKENSFEMQKGDQNPQIAAHVISEASSKTTSVLQWAEKGYYTMSNNLVTLENGKQLTVKRQGLYYIYAQVTFCSNREASSQAPFIASLCLKSPGRFERILLRAANTHSSAKPCGQQSIHLGGVFELQPGASVFVNVTDPSQVSHGTGFTSFGLLKL
TMP mediated expression of CD40L ([4]; HEK293T cells, 50 μM TMP or DMSO 24 hours): exception | % CD40L ([4]; TMP (50 μM)): 23.8% | MFI (Median) ([4]; TMP (50 μM)): 8311 | SR (for % CD40L) [4]: 0.89 | TMP/vehicle ratio of CD40L median fluorescence intensity [4]: 0.97 | % CD40L ([4]; Vehicle): 26.7% | MFI (Median) ([4]; Vehicle): 8535

B4: OT-002034: TMP regulated CD40L construct stably expressed in Jurkat cells (protein)
chain: B3 chain with R102Q
% CD40L ([4]; TMP (50 μM)): 71.1% | MFI (Median) ([4]; TMP (50 μM)): 20569 | SR (for % CD40L) [4]: 2.44 | TMP/vehicle ratio of CD40L median fluorescence intensity [4]: 2.59 | % CD40L ([4]; Vehicle): 29.1% | MFI (Median) ([4]; Vehicle): 7957 | CD40L MFI values ([5]; Average, TMP 500 mg/kg 3x oral): 520.75 | Percent CD40L positive cells ([5]; Average, TMP 500 mg/kg 3x oral): 53.4% | CD40L MFI values ([5]; Average, Vehicle): 93.65 | Percent CD40L positive cells ([5]; Average, Vehicle): 1.82% | % CD40L positive cells [5, 6]: increased | CD40L values (MFI) [5, 6]: increased | CD40L MFI values [5, 7]: 608 and 542 and 505 and 428 | Percent CD40L positive cells [5, 7]: 61% and 56.3% and 52.2% and 44.1% | CD40L MFI values ([5]; individual mice, Vehicle): 101 and 80.6 and 97.9 and 95.1 | Percent CD40L positive cells ([5]; individual mice, Vehicle): 2.36% and 0.83% and 2.17% and 1.92%
